Here are results for five molecules from paper PMC5095173, “Disulfide-activated protein kinase G Iα regulates cardiac diastolic relaxation and fine-tunes the Frank–Starling response” (Nature Communications, 2016).

Test [1] has as its system PKGIα (analogue-sensitive C42S/M438G), cGMP-activated. Put plainly: Chemical genetic phosphoproteomic screen, cGMP-activated PKGIα C42S/M438G versus unactivated control. Particulars: n=4. The test is classed as biochemical, human PKGIα; substrates in rat heart homogenate. The text has this: (§1) We employed a chemical genetic method[18] to identify direct substrates of cGMP-activated PKGIα and disulfide bond-activated PKGIα in heart tissue. This method involves mutation of the ATP binding-site of the kinase of interest so that it can accept a ‘bulky' N6-alkylated ATP analogue for example, N6^−phenylethyl ATP. An oxygen atom on the γ phosphate is also replaced with a sulfur atom—giving an N6-alkylated ATPγS analogue—so that the mutant kinase catalyses the transfer of a thiophosphate group (–PO3S^3−) to its substrates instead of a phosphate. The thiophosphate group is nucleophilic, providing a basis for substrates of the analogue-sensitive kinase to be purified by a ‘covalent capture' protocol. LC–MS/MS allows identification of the substrate and localization of the phosphorylation site. Thiophosphorylated proteins can also be detected with a thiophosphate ester-specific antibody. Analogue-sensitive mutants of PKGIα and PKGIα C42S (which cannot form the activating intermolecular disulfide bond) were generated by mutating Met438 in the ATP-binding domain to Gly. This mutation was chosen based on a previous study where an analogue-sensitive mutant of the catalytic subunit of PKA—which shares sequence homology with PKGIα—was engineered. Detailed protocols are given below.
(§2) A pCDNA3 expression vector encoding human FLAG-tagged PKGIα (ref. [41]) underwent site-directed mutagenesis to generate constructs for untagged WT, C42S, M438G and C42S/M438G PKGIα. Mutations were introduced using the QuikChange II Site-Directed Mutagenesis Kit (Agilent) according to the manufacturer's instructions. Expression and purification of the PKGIα mutants was performed according to a published method[42] as follows: suspension FreeStyle 293-F cells (ThermoFisher Scientific) were transfected with the appropriate PKGIα construct using the stable cationic polymer polyethyleneimine (PEI) as a transfection reagent. After ∼72 h cells were harvested by centrifugation (400g; room temperature; 15 min), re-suspended in ice cold lysis buffer (25 mM sodium phosphate buffer pH 6.8; 10 mM ethylenediaminetetraacetic acid (EDTA); 100 mM NaCl; 10 mM benzamidine hydrochloride; and 10 mM dithiothreitol (DTT)) and frozen in liquid N2. Cells were lysed by three freeze (liquid N2)-thaw (37 °C) cycles and the lysate was clarified by centrifugation at 140,000g and 4 °C for 30 min. The soluble protein fraction was loaded onto a pre-equilibrated 8-(2-aminoethylamino)adenosine-3′, 5′-cyclic monophosphate column (8-AEA-cAMP agarose; BioLog, Germany) followed by washing with 20 column volumes of lysis buffer. The column was further washed with lysis buffer +3 M NaCl (5 column volumes) and PKGIα was then eluted with lysis buffer +150 mM NaCl and 500 μM cAMP. Removal of cAMP and buffer exchange was achieved by extensive dialysis against 25 mM sodium phosphate buffer pH 6.8, 2 mM EDTA and 100 mM NaCl. For ITC analysis, WT PKGIα was incubated with 10 mM lipoic acid for 2 h on ice to obtain ∼100% disulfide dimer (confirmed by SDS-PAGE). Oxidized WT or C42S PKGIα was further purified by size exclusion chromatography using a HiLoad 16/600 Superdex 200 pg column (GE Healthcare) with 50 mM sodium phosphate buffer pH 7.4 and 100 mM NaCl. Proteins were concentrated using Amicon Ultra centrifugal filter devices (Merck Millipore). DTT was absent in storage buffers so that the activating disulfide bond would not be reduced and so that the PKGIα M438G mutant would be oxidized to disulfide dimer in the presence of air (confirmed by SDS-PAGE). Protein concentration was determined by Pierce BCA assay (ThermoFisher) and enzyme activity was confirmed using the Omnia kinase assay kit (ThermoFisher).
(§3) Male Wistar rats (9–10 weeks; body weight 300–330 g) were euthanized by intraperitoneal injection of sodium pentobarbitone (200 mg kg^−1) with heparin (500 USP units). […]

Test [2] has as its system PKGIα (analogue-sensitive M438G), disulfide-activated. Nature of the test: Chemical genetic phosphoproteomic screen, disulfide-activated PKGIα M438G versus unactivated control. The test is classed as biochemical, human PKGIα; substrates in rat heart homogenate. The following applies: n=4.
Text: as §1, §2, §3

Where [3] appears, read: PKGIα C42S/M438G + 100 μM cGMP vs basal, 1 h, 30 °C, pH 7.5, rat heart homogenate, label-free LC–MS/MS, * P<0.05 Dunnett: all values except phospholamban S16.
Setting [4] is: disulfide-activated PKGIα M438G vs basal, 1 h, 30 °C, pH 7.5, rat heart homogenate, label-free LC–MS/MS, * P<0.05 Dunnett: only phospholamban S16.

B1: Myosin light chain kinase 3: PKGIα substrate, phospho site S155 (protein, UniProt E9PT87 1-786, looked up)
Myosin light chain kinase 3: MSGVSEEDPEGLGPQGLPALGGACLVTVDKKLNVLTEKVDRLLHFQEDVTEKLQCVCQGMDHLEQGLHRLEASQELGLAGPGSTSPAAAQAAWPEVLELVRAVRQEGAQHGARLEALFKMVVAVDRAITLVGSTIQNSKVDDFILQGTVPWRKGSLADGPEENKEQAEVAGVKPKHVLNTGSVQAATSRALWEESQKQDTPVGTVEGLPLIIDTSLKGADLTQAGASLRQGVEALDPGQEPPPTEAESRLPALASEDTGTTLELSVAIDRISEVLTSLRMSQSAGEGTSSSKPDCSEPGPQPLGPLTTDSDIHSDEGLPRISVRMREMTTPEELFETQGGSPIGSAEAPGPGTVLEDQIPKGARPFPPLPKRSCNNGGASAEEATGPGAEPIRGPSLVTRDWRDEPVGTTDLQQGRDPGAVSPEPGKDHAAQGPGRTEAGRRVSSAAEAAIVVLDDSAAPPAPFEHRVVSIKDTLISTSYTVSQHEVLGGGRFGQVHRCTERSTGLALAAKIIKVKNIKDREDVKNEINIMNQLSHVNLIQLYDAFESKNSFTLIMEYVDGGELFDRITDEKYHLTELDVVLFTRQICEGVHYLHQHYILHLDLKPENILCVSQTGHQIKIIDFGLARRYKPREKLKVNFGTPEFLAPEVVNYEFVSFPTDMWSVGVITYMLLSGLSPFLGETDAETMNFIVNCSWDFDADTFKGLSEEAKDFVSRLLVKEKSCRMSATQCLKHEWLNHLIAKASGSNVRLRSQLLLQKYMAQRKWKKHFHVVTAVNRLRKFPTCP
modifications: phosphorylated at S155
Regarding B1, in test [1] (setting [3]), the “Log2 fold change in phosphorylation, cGMP versus control” value (“Log2 fold change … cGMP versus control” for short) is on record as 3.16*. Besides, the “Log2 fold change in phosphorylation, Disulfide versus control” value in test [2] (setting [4]) was found to be 1.13.

B2: Polymerase I and transcript release factor: PKGIα substrate, phospho sites T304 (r27) and S302 (r28) (protein, UniProt P85125 1-392, looked up)
Caveolae-associated protein 1: MEDVTLHIVERPYSGYPDASSEGPEPTPGEARATEEPSGTGSDELIKSDQVNGVLVLSLLDKIIGAVDQIQLTQAQLEERQAEMEGAVQSIQGELSKLGKAHATTSNTVSKLLEKVRKVSVNVKTVRGSLERQAGQIKKLEVNEAELLRRRNFKVMIYQDEVKLPAKLSVSKSLKESEALPEKEGDELGEGERPEEDAAAIELSSDEAVEVEEVIEESRAERIKRSGLRRVDDFKKAFSKEKMEKTKVRTRENLEKTRLKTKENLEKTRHTLEKRMNKLGTRLVPVERREKLKTSRDKLRKSFTPDHVVYARSKTAVYKVPPFTFHVKKIREGEVEVLKATEMVEVGPDDDEVGAERGAETDLLRGSSPDVHTLLEITEESDAVLVDKSDSD
modifications: phosphorylated at T304/S302
With B2, the “Log2 fold change … cGMP versus control” value was 3.05* in test [1] (setting [3]) and 3.16* in test [1] (phospho site S302 (second site of this protein), * P<0.05). Also, the “Log2 fold change in phosphorylation, Disulfide versus control” value in test [2] (setting [4]) is reported as 1.30; in test [2] (phospho site S302 (second site of this protein), not significant), 1.32.

B3: Trifunctional enzyme subunit beta, mitochondrial: PKGIα substrate, phospho site S198 (protein, UniProt Q60587 35-475, looked up)
Trifunctional enzyme subunit …: SAPAVQTKSKKTLAKPNLKNIVVVEGVRIPFLLSGTSYKDLMPHDLARAALSGLLYRTNIPKDVVDYIIFGTVIQEVKTSNVAREAALGAGFSDKTPAHTVTMACISSNQAMTTAVGLIASGQCDVVVAGGVELMSDVPIRHSRNMRKMMLDLNKAKTLAQRLSLLTKFRLNFLSPELPAVAEFSTNETMGHSADRLAAAFAVSRMEQDKYALRSHSLAKKAQDEGHLSDIVPFKVPGKDTVSKDNGIRPSSLEQMAKLKPAFIKPYGTVTAANSSFLTDGASAMLIMSEDRALAMGYKPKAYLRDFIYVSQDPKDQLLLGPTYATPKVLEKAGLTMNDIDAFEFHEAFSGQILANFKAMDSDWFAQNYMGRKTKVGAPPLEKFNIWGGSLSLGHPFGATGCRLVMAAANRLRKDGGQYALVAACAAGGQGHAMIVEAYPK
modifications: phosphorylated at S198
Turning to B3, the “Log2 fold change … cGMP versus control” value in test [1] (setting [3]) is listed as 3.44*. The “Log2 fold change in phosphorylation, Disulfide versus control” value in test [2] (setting [4]) is on record as 0.04.

B4: Protein NDRG2: PKGIα substrate, phospho site S332 (protein, UniProt Q9QYG0 2-371, looked up)
Protein NDRG2: AELQEVQITEEKPLLPGQTPETAKEAELAARILLDQGQTHSVETPYGSVTFTVYGTPKPKRPAIFTYHDVGLNYKSCFQPLFRFGDMQEIIQNFVRVHVDAPGMEEGAPVFPLGYQYPSLDQLADMIPCILQYLNFSTIIGVGVGAGAYILSRYALNHPDTVEGLVLINIDPNAKGWMDWAAHKLTGLTSSIPDMILGHLFSQEELSGNSELIQKYRGIIQHAPNLENIELYWNSYNNRRDLNFERGGETTLKCPVMLVVGDQAPHEDAVVECNSKLDPTQTSFLKMADSGGQPQLTQPGKLTEAFKYFLQGMGYMASSCMTRLSRSRTASLTSAASIDGSRSRSRTLSQSSESGTLPSGPPGHTMEVSC
modifications: phosphorylated S332
B4: the “Log2 fold change … cGMP versus control” value in test [1] (setting [3]) is 3.42*. In test [2] (setting [4]), the “Log2 fold change in phosphorylation, Disulfide versus control” value is recorded as 1.91.

B5: Mitochondrial ribonuclease P protein 1: PKGIα substrate, phospho site T377 (protein, UniProt Q5U2R4 36-414, looked up)
tRNA methyltransferase 10 …: VSSKVPSLPCHNKDSTSPPEQLELDGWKTTMKSSIQENGVSVVSDKDEDSLAATRELIEMWRLLGKEVPEHITEEELKTLMECASKSAKKKYLRYLYGKEMMKKAKQMKKEMKAAAREEAKRARSLEPSTGEEQRDFMFLRLWDRQTNIALGWKGVQAMQFGQPLVFDMAYDNYMKPSELQNTVSQLLESEGWNRRNVDPFHIYFCNLEVDGAYHRELVKRYGEKWDKLLLTATEKSPVDLFPKDSIIYLTADSPNVMTTFKHDKIYIIGSFVDKNTQTGTSLAKAKRQNLATECLPLDKYLQWDVGNKNLTLDQMIRILLCLKNTGNWEEALKFVPRRKHTGYLEVPEHSQAAFRKLKKTKTLNSFRKGSLNVHMWKR
modifications: phosphorylated at T377
B5: in test [1] (setting [3]), the “Log2 fold change … cGMP versus control” value is 1.98*. The “Log2 fold change in phosphorylation, Disulfide versus control” value in test [2] (setting [4]) was 0.45.
